# Data from PMC8754651 (2021).
# B1: human RPB6 (residues 1–24), NTT peptide [human] / human TFIIH p62 PH domain (PH-D) (residues 1–108) [human] (parent complex)
# chain 1: MSDNEDNFDGDDFDDVEEDEGLDD
# chain 2: MATSSEEVLLIVKKVRQKKQDGALYLMAERIAWAPEGKDRFTISHMYADIKCQKISPEGKAKIQLQLVLHAGDTTNFHFSNESTAVKERDAVKDLLQQLLPKFKRKAN
# Variants of: B1
# Experiment: ITC
row,Variant,Kd [µM]
1,chain 1 MADNEDNFDGDDFDDVEEDEGLDD [chain 1 S2A],3.65
2,chain 1 MSDNEDNADGDDFDDVEEDEGLDD [chain 1 F8A],2.85

# More lines, in order of falling Kd, values ahead:
row,Kd [µM],Variant
1,7.35,"chain 1 MSDNEDNFDGDDADDAEEDEGLDD [chain 1 F13A, chain 1 V16A]"
2,7.14,chain 1 MSDNEDNFDGDDFDDAEEDEGLDD [chain 1 V16A]
